Here are results for 2 proteins from US8501692 (REGENTS OF THE UNIVERSITY OF MICHIGAN, dated 2013).

The data set concerns the molecule itself. As to the kind of experiment: SDS-PAGE after oxidation with CuCl2. As for the experimental part:
Oxidation: Purified proteins were oxidized in 50 mM Tris pH 8.0 buffer containing 100 μm CuCl_2 overnight at 4° C. CuCl_2 was then removed by chelating it by adding 1 mM EDTA to the above mixture. Protein was further purified by passing it through Q Sepharose column and eluting off the column with 150-500 mM NaCl gradient. Fractions containing purified oxidized protein were identified by running on a SDS-PAGE gel under non-reducing conditions and pooled and concentrated to 5 mg/ml and snap frozen in liq N_2 and stored at −80° C.

B1: G4C/S10C/T172R/G173Q CocE with H6 tag (enzyme)
chain: MVDCNYSVACNVMVPMRDGVRLAVDLYRPDADGPVPVLLVRNPYDKFDVFAWSTQSTNWLEFVRDGYAVVIQDTRGLFASEGEFVPHVDDEADAEDTLSWILEQAWCDGNVGMFGVSYLGVTQWQAAVSGVGGLKAIAPSMASADLYRAPWYGPGGALSVEALLGWSALIGRQLITSRSDARPEDAADFVQLAAILNDVAGAASVTPLAEQPLLGRLIPWVIDQVVDHPDNDESWQSISLFERLGGLATPALITAGWYDGFVGESLRTFVAVKDNADARLVVGPWSHSNLTGRNADRKFGIAATYPIQEATTMHKAFFDRHLRGETDALAGVPKVRLFVMGIDEWRDETDWPLPDTAYTPFYLGGSGAANTSTGGGTLSTSISGTESADTYLYDPADPVPSLGGTLLFHNGDNGPADQRPIHDRDDVLCYSTEVLTDPVEVTGTVSARLFVSSSAVDTDFTAKLVDVFPDGRAIALCDGIVRMRYRETLVNPTLIEAGEIYEVAIDMLATSNVFLPGHRIMVQVSSSNFPKYDRNSNTGGVIAREQLEEMCTAVNRIHRGPEHPSHIVLPIIKRKLAAALEHHHHHH
modifications: oxidized with CuCl2: disulfide bridge between Cys 4 of one monomer and Cys 10 of the other monomer
notes: Cloned and expressed like the CC mutant (C-terminal His tag); Cross-linked homodimer; also called CCRQ; CCRQ-CocE
For B1, the binding result was “binds”.

B2: G4C/S10C/L169K/G173Q CocE with H6 tag (enzyme)
chain: MVDCNYSVACNVMVPMRDGVRLAVDLYRPDADGPVPVLLVRNPYDKFDVFAWSTQSTNWLEFVRDGYAVVIQDTRGLFASEGEFVPHVDDEADAEDTLSWILEQAWCDGNVGMFGVSYLGVTQWQAAVSGVGGLKAIAPSMASADLYRAPWYGPGGALSVEALLGWSAKIGTQLITSRSDARPEDAADFVQLAAILNDVAGAASVTPLAEQPLLGRLIPWVIDQVVDHPDNDESWQSISLFERLGGLATPALITAGWYDGFVGESLRTFVAVKDNADARLVVGPWSHSNLTGRNADRKFGIAATYPIQEATTMHKAFFDRHLRGETDALAGVPKVRLFVMGIDEWRDETDWPLPDTAYTPFYLGGSGAANTSTGGGTLSTSISGTESADTYLYDPADPVPSLGGTLLFHNGDNGPADQRPIHDRDDVLCYSTEVLTDPVEVTGTVSARLFVSSSAVDTDFTAKLVDVFPDGRAIALCDGIVRMRYRETLVNPTLIEAGEIYEVAIDMLATSNVFLPGHRIMVQVSSSNFPKYDRNSNTGGVIAREQLEEMCTAVNRIHRGPEHPSHIVLPIIKRKLAAALEHHHHHH
modifications: oxidized with CuCl2: disulfide bridge between Cys 4 of one monomer and Cys 10 of the other monomer
notes: Cloned and expressed like the CC mutant (C-terminal His tag); Cross-linked homodimer; also called CCKQ; CCKQ tetramutant
As to B2, the binding result was “binds”.
